Measurements: patent publication US20240150495A1

Assays:
[1] = molecular target: human ανβ3 integrin (Chemicon) (human) (UniProt P06756); experiment: ELISA on coated human ανβ3 integrin (1 ug/ml), binder at 0.010 µg/ml; positive control
[2] = molecular target: human ανβ3 integrin (Chemicon) (human) (UniProt P06756); experiment: ELISA on coated human ανβ3 integrin (1 ug/ml), binder at 0.002 µg/ml; positive control
[3] = molecular target: human ανβ3 integrin (Chemicon) (human) (UniProt P06756); experiment: ELISA on coated human ανβ3 integrin (1 ug/ml), binder at 2.500 µg/ml; positive control
[4] = molecular target: human ανβ3 integrin (Chemicon) (human) (UniProt P06756); experiment: ELISA on coated human ανβ3 integrin (1 ug/ml), binder at 0.156 µg/ml; positive control
[5] = molecular target: human ανβ3 integrin (Chemicon) (human) (UniProt P06756); experiment: ELISA on coated human ανβ3 integrin (1 ug/ml), binder at 0.625 µg/ml; positive control
[6] = molecular target: human ανβ3 integrin (Chemicon) (human) (UniProt P06756); experiment: ELISA on coated human ανβ3 integrin (1 ug/ml), binder at 0.039 µg/ml; positive control
[7] = molecular target: human ανβ3 integrin (Chemicon) (human) (UniProt P06756); experiment: ELISA on coated human ανβ3 integrin (1 ug/ml), binder at 10 µg/ml; positive control

Sequence of human ανβ3 integrin (Chemicon) (human) (P06756 31-1048 limits assumed, chain 1 of 2): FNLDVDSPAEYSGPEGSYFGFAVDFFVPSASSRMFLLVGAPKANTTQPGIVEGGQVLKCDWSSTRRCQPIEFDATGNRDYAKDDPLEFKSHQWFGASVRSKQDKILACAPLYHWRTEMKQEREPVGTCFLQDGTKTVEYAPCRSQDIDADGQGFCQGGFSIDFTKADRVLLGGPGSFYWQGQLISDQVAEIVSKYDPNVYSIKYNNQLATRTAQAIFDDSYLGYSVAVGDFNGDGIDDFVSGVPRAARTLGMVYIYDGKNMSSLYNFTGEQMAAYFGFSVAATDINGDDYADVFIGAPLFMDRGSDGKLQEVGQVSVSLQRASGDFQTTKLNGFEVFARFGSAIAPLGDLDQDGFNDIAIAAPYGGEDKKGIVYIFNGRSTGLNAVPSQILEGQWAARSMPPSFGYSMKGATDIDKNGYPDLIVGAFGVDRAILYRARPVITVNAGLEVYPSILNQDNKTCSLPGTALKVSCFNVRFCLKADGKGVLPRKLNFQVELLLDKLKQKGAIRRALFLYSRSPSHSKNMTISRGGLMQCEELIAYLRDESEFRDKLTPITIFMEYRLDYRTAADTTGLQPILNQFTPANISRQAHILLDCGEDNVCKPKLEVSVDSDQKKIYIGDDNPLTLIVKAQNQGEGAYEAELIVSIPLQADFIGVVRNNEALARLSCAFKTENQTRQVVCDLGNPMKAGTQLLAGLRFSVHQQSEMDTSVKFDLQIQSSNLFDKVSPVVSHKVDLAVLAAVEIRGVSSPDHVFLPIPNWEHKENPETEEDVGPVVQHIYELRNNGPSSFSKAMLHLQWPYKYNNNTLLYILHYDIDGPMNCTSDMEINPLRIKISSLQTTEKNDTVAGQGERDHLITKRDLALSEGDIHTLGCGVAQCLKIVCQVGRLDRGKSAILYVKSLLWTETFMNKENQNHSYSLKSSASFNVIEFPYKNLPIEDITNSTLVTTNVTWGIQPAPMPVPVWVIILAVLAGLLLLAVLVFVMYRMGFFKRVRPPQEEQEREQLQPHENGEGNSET
Sequence of human ανβ3 integrin (Chemicon) (human) (P05106 27-788 limits assumed, chain 2 of 2, further chain): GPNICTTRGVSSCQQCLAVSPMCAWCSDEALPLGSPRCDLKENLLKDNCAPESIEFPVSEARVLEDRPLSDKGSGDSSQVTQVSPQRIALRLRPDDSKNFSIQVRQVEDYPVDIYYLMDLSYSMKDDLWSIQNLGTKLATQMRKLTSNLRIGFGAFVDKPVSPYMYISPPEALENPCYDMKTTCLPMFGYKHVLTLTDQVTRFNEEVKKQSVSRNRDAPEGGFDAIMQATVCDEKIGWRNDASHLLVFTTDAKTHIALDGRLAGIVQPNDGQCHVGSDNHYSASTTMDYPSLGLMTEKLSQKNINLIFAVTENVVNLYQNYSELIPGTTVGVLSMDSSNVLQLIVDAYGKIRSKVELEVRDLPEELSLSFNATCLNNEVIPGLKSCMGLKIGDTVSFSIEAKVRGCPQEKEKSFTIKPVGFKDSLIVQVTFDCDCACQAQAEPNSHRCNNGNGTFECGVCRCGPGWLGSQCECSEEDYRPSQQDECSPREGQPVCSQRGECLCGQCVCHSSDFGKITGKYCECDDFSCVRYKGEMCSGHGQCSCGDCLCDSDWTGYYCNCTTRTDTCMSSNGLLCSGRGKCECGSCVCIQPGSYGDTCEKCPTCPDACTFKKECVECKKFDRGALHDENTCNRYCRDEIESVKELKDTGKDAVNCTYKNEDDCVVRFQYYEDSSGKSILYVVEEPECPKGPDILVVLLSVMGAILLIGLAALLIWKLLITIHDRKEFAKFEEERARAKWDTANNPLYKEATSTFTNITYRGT

## commercial mouse anti human ανβ3 integrin mAb LM609 (Chemicon) (antibody)
[1]
  OD 450: 0.157 OD 450
[2]
  OD 450: 0.077 OD 450
[3]
  OD 450: 0.644 OD 450
[4]
  OD 450: 0.626 OD 450
[5]
  OD 450: 0.657 OD 450
[6]
  OD 450: 0.391 OD 450
[7]
  OD 450: 0.647 OD 450
